{"source": "patent US20180271994A1", "about": "(published 2018)", "key": {"[1]": {"target": "immunodominant epitope of the MUC18 antigen", "test": "phage ELISA, peptide coated at 100 ug/ml (control phage)"}, "MUC18 antigen": {"target": "T1, MUC18 antigen (human, UniProt P43121 24-646)", "T1 sequence (looked up)": "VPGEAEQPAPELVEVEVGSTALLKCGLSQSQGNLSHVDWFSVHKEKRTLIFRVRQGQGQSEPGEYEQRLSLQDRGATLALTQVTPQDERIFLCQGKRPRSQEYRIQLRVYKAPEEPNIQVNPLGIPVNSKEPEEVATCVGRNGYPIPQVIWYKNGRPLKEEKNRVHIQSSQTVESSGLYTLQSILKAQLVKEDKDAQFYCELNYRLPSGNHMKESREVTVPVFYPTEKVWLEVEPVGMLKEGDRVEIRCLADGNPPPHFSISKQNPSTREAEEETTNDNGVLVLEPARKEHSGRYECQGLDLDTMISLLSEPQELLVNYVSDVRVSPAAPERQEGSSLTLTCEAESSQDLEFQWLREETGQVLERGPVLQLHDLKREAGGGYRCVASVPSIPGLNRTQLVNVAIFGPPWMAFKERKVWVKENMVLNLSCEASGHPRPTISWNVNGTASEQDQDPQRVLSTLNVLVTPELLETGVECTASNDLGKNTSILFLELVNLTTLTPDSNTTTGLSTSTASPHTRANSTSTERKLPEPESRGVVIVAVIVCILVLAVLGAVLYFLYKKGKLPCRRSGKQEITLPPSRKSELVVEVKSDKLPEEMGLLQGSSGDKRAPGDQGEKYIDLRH", "test": "cell-based or functional assay"}, "[2]": {"target": "immunodominant epitope of the MUC18 antigen", "test": "phage ELISA, peptide coated at 100 ug/ml"}, "unrelated peptide": {"target": "unrelated peptide", "test": "phage ELISA, well with unrelated peptide (control)"}, "[3]": {"target": "immunodominant epitope of the MUC18 antigen", "test": "phage ELISA, peptide well against negative control well"}}}
{"molecule": "unrelated phage", "values": [{"measurement": "mean absorbance (OD 450 nm)", "setting": "[1]", "value": 0.17, "unit": "OD450"}]}
{"molecule": "anti-MUC18 human immunotoxin (other) GRGALVESGPGLVKPSETLFLTCTVSGGSISSYYWSWIRQPAGKGLEWIAYIYYSGSTNYNPSLKSRVTISVDTSNNQFSLKLSSVTAADTAVYYCAKLTAAGGHFDPWGQGTLVTVSSGGGGSGGGGSGGGGSDIVMTQSPSSLSASIGDRVTITCRASQGISNFLAWFQQKPGKAPKSLIYAASSLQSGVPSKFSGSGSGTDFTLAISSLQPEDFATYYCLQDSDYPLTFGGGTKLEIKRASGGPEGGSRHRQPRGWEQLADVVSLTCPVAAGECAGPADSGDALLERNYPTGAEFLGDGGAISFSTRGTQNWTVERLLQAHRQLEEGGYVFVGYHGTFLEAAQSIVFGGVRARSQDLDAIWAGFYIAGDPALAYGYAQDQEPDAAGRIRNGALLRVYVPRSSLPGFYATGLTLAAPEAAGEVERLIGHPLPLRLDAITGPEEAGGRLETILGWPLAERTVVIPSAIPTDPRNVGGDLDPSSIPDSEAAISALPDYASQPGKPPKDEL", "values": [{"measurement": "IC50, MTT assay, A375 cells, 24 hours", "setting": "MUC18 antigen", "value": "~2.1", "unit": "nM"}, {"measurement": "IC50, MTT assay, DU145 cells, 24 hours", "setting": "MUC18 antigen", "value": "~6.1", "unit": "nM"}]}
{"molecule": "anti-MUC18 HscFv-displaying phage (scFv) scFv: GRGALVESGPGLVKPSETLFLTCTVSGGSISSYYWSWIRQPAGKGLEWIAYIYYSGSTNYNPSLKSRVTISVDTSNNQFSLKLSSVTAADTAVYYCAKLTAAGGHFDPWGQGTLVTVSSGGGGSGGGGSGGGGSDIVMTQSPSSLSASIGDRVTITCRASQGISNFLAWFQQKPGKAPKSLIYAASSLQSGVPSKFSGSGSGTDFTLAISSLQPEDFATYYCLQDSDYPLTFGGGTKLEIKR", "values": [{"measurement": "mean absorbance (OD 450 nm)", "setting": "[2]", "value": 1.6, "unit": "OD450"}, {"measurement": "mean absorbance (OD 450 nm)", "setting": "unrelated peptide", "value": 0.1, "unit": "OD450"}, {"measurement": "fold OD over negative control well", "setting": "[3]", "value": 4, "unit": "fold"}]}
